B1: RETN-5A2 (antibody, human IgG1, V domains shown)
VH: QVQLVQSGAEGRKPGSSVKVSCKVSGDTFSSYAISWVRQAPGQGLEWMGGIIPIFGAADYAQKFKGRVTISADESTSTAYMELSSLRSEDTAVYYCAKGPDYYGSFDPWGQGTLITVSS
VL: DIQMTQSPSFLSASVGDRVTITCRASQYIGTYLAWYQQQPGKAPKLLIYGASILQNGVPSRFSGSASGTEFTLTISSLQPEDFATYYCQQADSFPLTFGGGTKVDIKR
notes: Human antibody from scFv phage library, converted to IgG and made in HEK293F cells; also called parent antibody 5A2; resistin 5A2 parent antibody
B2: RETN-5A2_LS_2E10 (antibody, human IgG1, V domains shown)
VH: QVQLVQSGAEGRKPGSSVKVSCKVSGDTFSSYAISWVRQAPGQGLEWMGGIIPIFGAADYAQKFKGRVTISADESTSTAYMELSSLRSEDTAVYYCAKGPDYYGSFDPWGQGTLITVSS
VL: DIQMTQSPSSLSASVGDRVTITCRTSQTITNYLNWYQQKPGRAPKLLIFDASNLETGVPSRFSGSGSGTDFTLTISSLQPEDFATYFCQQSYNPGYTFGQGTKLEIKR
notes: Light chain shuffled variant of RETN-5A2, tested as IgG
B3: RETN-5A2_LS_2G03 (antibody, human IgG1, V domains shown)
VH: QVQLVQSGAEGRKPGSSVKVSCKVSGDTFSSYAISWVRQAPGQGLEWMGGIIPIFGAADYAQKFKGRVTISADESTSTAYMELSSLRSEDTAVYYCAKGPDYYGSFDPWGQGTLITVSS
VL: DIQMTQSPSSLSASVGDRVTITCQASQHVSSYLNWYQQKPGKAPKLLIYAASNLQSGVPSRFSGSGSGTDFTLTISSLQPDDFATYYCQQYDSYSSVYTFGPGTKLDIKR
notes: as for B2
B4: RETN-5A2_LS_1F11 (antibody, human IgG1, V domains shown)
VH: QVQLVQSGAEGRKPGSSVKVSCKVSGDTFSSYAISWVRQAPGQGLEWMGGIIPIFGAADYAQKFKGRVTISADESTSTAYMELSSLRSEDTAVYYCAKGPDYYGSFDPWGQGTLITVSS
VL: not shown
notes: as for B2
B5: RETN-5A2_LS_2B02 (antibody, human IgG1, V domains shown)
VH: QVQLVQSGAEGRKPGSSVKVSCKVSGDTFSSYAISWVRQAPGQGLEWMGGIIPIFGAADYAQKFKGRVTISADESTSTAYMELSSLRSEDTAVYYCAKGPDYYGSFDPWGQGTLITVSS
VL: DIQMTQSPGTLSLSAGERATLSCRASQSVRGSYLAWYQQKPGQAPRLLIYGTSSRAPGIPDRFSGSGSGTDFTLTISSLEPEDFAVYYCQQRGDWLYTFGQGTKVEIKR
notes: as for B2
B6: RETN-5A2_LS_2D07 (antibody, human IgG1, V domains shown)
VH: QVQLVQSGAEGRKPGSSVKVSCKVSGDTFSSYAISWVRQAPGQGLEWMGGIIPIFGAADYAQKFKGRVTISADESTSTAYMELSSLRSEDTAVYYCAKGPDYYGSFDPWGQGTLITVSS
VL: QSALTQPASVSGSPGQSVTISCTGTSSDIGRYNRVSWYQHHPGKAPKLIIYDVSNRPSGVSNRFSGSKSGNTASLTISGLQAGDESDYYCSAYTRSSTWVFGGGTKLTVLR
notes: as for B2
B7: RETN-5A2_LS_2F11 (antibody, human IgG1, V domains shown)
VH: QVQLVQSGAEGRKPGSSVKVSCKVSGDTFSSYAISWVRQAPGQGLEWMGGIIPIFGAADYAQKFKGRVTISADESTSTAYMELSSLRSEDTAVYYCAKGPDYYGSFDPWGQGTLITVSS
VL: DIQMTQSPSSLSASVGDRVTITCRASQSIGTYLNWYQQKPGKAPKLLIYDASSLEDGVPSRFSGSGSGTDFTLTISSLQPEDSATYYCQQSYTMPLYTFGQGTKLEIKR
notes: as for B2
B8: RETN-5A2_LS_2H10 (antibody, human IgG1, V domains shown)
VH: QVQLVQSGAEGRKPGSSVKVSCKVSGDTFSSYAISWVRQAPGQGLEWMGGIIPIFGAADYAQKFKGRVTISADESTSTAYMELSSLRSEDTAVYYCAKGPDYYGSFDPWGQGTLITVSS
VL: NFMLTQPASVSGSPGQSITISCTGSSSDVGGYNYVTWYQQHPGKAPQLIIYDVTKRPSGVSNRFSGSKSGNSASLTISGLQAEDEADYYCSSYSSSTFYVFGTGTKVTVLR
notes: as for B2

Each binder was assayed against T1, resistin antigen (UniProt Q9HD89 19-108, limits assumed) (assay: Octet, resistin antigen on the biosensor, antibody in solution).
T1 construct: Used for the Octet assays and the monophage ELISAs, where only 'resistin antigen' is printed; tags not known; also called resistin antigen protein
T1 sequence (looked up): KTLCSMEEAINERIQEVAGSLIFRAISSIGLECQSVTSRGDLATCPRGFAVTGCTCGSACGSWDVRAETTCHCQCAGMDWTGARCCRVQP
Description: To investigate the affinity between the antibody and the resistin antigen, the Octet (Forte bio) system, which enables real-time investigation of ligand-receptor binding using a biosensor, was used. The system is an instrument that binds resistin antigen protein to a biosensor, flows antibody through it, and optically analyzes the degree of antibody binding to the antigen bound to the sensor, measuring the level of antibody binding to the antigen with high sensitivity at the light wavelength level. The affinity for the resistin antigen was expressed as Kₒₙ (association constants, binding rate) and Kdis (dissociation constants, dissociation rate) between the receptor and ligand, and KD (equilibrium dissociation constant) for the reaction of binding and dissociation.
For B1, the Kd was ≤ 1 nM. With B2 the Kd was ≤ 1 nM. For B3, the Kd was ≤ 1 nM. With B4 the Kd was ≤ 1 nM. B5 was tested, and the Kd was ≤ 1 nM. B6 was tested, and the Kd was ≤ 1 nM. In the case of B7, the Kd is reported as ≤ 1 nM. With B8 the Kd was ≤ 1 nM.

What follows are binders tested against T2, murine resistin (#450-28) from peprotech (mouse, UniProt Q99P87 21-114) (assay: ELISA, coated murine resistin).
T2 construct: Bought; also called mouse antigen; mouse resistin antigen
T2 sequence (looked up): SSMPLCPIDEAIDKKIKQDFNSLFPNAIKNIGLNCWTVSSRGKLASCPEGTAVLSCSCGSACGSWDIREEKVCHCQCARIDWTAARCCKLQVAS
Procedure: The mouse antigen was murine resistin (#450-28) from peprotech. Mouse antigen was diluted to 10 nM in DPBS in 96-well immune plates (NUNC, 439454) at 100 μl per well, and coated for 16 hours at 4° C. It was then blocked with skim milk diluted 4% in PBS for 1 hour at 37° C. Antibody proteins were diluted in 1% skim milk diluted in PBS to 1, 10, and 100 nM, respectively, at 100 μl per well and incubated for 2 hours at 37° C. After washing with PBS-T, anti-human Fc-HRP (Pierce® Peroxidase Conjugated Goat Anti-Human IgG FC (thermo fisher scientific, 31413)) was diluted at 1:10,000 dilution and reacted for 1 hour at 37° C. as a secondary antibody. After PBS-T washing, 100 μl of TMB (sigma, T0440) solution was applied to each well for a 10 min substrate reaction. After 10 minutes, the substrate reaction was stopped by treating each well with 50 μl of 1N H₂SO₄ and measured at 490 nm using a spectrophotometer (thermo fisher scientific, 51119200).
B1: no binding (tested: antibody at 1, 10 and 100 nM).

Reference: US20250019430A1 (SEOUL NATIONAL UNIVERSITY HOSPITAL, published 2025)
